Substitutions are numbered along the chain they refer to. Each block holds one binder with its values, some of them ahead of it.
Experiments:
[1] = target: T1, 重组人GAS6 his 蛋白(Novoprotein，Cat#C01W) (human, UniProt Q14393 31-678, limits assumed); assay: ELISA, coated human GAS6 his 0.5 ug/ml
T1 construct: Bought protein; not shown: His tag
T1 sequence (looked up): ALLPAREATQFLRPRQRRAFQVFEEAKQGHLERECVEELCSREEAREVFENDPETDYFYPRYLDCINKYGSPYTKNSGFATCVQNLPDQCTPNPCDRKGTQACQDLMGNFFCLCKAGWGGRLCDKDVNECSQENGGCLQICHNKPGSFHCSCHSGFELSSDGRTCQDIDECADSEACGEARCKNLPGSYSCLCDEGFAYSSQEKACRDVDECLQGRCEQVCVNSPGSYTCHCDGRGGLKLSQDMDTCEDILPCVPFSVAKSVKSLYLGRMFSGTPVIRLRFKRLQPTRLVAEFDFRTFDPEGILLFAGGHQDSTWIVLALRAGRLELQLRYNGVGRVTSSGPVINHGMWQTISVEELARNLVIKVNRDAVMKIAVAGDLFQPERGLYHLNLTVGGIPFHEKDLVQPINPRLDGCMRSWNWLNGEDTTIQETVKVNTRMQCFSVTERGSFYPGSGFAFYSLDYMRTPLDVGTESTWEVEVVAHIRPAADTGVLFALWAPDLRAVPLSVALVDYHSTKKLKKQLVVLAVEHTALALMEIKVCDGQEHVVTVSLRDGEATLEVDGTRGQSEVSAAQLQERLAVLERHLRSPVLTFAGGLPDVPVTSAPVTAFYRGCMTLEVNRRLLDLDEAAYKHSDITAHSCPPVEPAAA

鼠GAS6 his蛋白(Sino …) = target: T2, 鼠GAS6 his蛋白(Sino Biological，Cat#58026-M08H) (mouse, UniProt Q61592 28-674); assay: ELISA, coated mouse GAS6 his 0.5 ug/ml
T2 construct: Bought protein; also called 小鼠 GAS6; not shown: His tag
T2 sequence (looked up): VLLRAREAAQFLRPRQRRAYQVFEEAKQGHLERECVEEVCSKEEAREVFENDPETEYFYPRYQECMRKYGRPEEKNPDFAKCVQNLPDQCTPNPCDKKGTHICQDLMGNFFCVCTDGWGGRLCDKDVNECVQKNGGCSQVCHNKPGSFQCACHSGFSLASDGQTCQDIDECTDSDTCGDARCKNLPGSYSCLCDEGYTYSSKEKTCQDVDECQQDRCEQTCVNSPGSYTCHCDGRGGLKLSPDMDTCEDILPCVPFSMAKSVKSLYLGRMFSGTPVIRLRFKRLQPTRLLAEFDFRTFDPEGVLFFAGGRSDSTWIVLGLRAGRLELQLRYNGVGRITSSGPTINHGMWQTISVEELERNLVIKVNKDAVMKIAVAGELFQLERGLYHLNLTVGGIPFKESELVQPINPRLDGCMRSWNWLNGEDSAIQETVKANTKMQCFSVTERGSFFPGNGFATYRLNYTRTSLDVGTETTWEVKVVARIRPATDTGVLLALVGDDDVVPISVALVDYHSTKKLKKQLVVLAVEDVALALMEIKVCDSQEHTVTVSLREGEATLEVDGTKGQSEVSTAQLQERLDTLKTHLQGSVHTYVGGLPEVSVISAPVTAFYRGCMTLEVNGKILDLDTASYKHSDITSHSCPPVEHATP

[2] = target: T3, 重组人Protein S his 蛋白(R&D，Cat# 9489-PS) (human, UniProt P07225 42-676, limits assumed); assay: ELISA, coated human Protein S his 1 ug/ml
T3 construct: Bought protein; not shown: His tag
T3 sequence (looked up): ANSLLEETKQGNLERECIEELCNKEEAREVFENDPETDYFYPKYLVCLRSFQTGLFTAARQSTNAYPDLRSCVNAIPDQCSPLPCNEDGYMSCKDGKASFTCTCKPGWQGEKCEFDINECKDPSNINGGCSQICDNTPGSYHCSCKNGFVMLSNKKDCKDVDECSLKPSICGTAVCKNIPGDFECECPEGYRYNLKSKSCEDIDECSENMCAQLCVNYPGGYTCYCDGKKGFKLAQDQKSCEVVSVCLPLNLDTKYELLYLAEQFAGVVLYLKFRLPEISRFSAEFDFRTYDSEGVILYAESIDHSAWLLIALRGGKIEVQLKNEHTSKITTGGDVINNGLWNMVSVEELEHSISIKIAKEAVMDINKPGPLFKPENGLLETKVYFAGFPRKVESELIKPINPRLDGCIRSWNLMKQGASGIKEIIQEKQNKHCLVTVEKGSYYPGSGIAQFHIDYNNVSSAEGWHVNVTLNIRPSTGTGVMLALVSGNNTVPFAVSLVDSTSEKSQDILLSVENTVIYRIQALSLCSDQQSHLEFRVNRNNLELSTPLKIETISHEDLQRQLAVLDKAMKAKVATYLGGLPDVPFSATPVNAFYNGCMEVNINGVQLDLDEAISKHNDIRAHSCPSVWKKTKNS

EC50 [1]: 0.18 nM | EC50 (鼠GAS6 his蛋白(Sino …)): 0.15 nM
B1: ch11B11D12 (antibody, human IgG1, kappa, V domains shown)
VH: QVQLQQSGAELAKPGASVKMSCKASGYTFTRYWIHWVKQRPGQGLEWIGYIIPSTGYTEYSQRFKDKATLTADKSSNTAYMQLSSLTSEDSAVYYCTRYYRYAKYVMDYWGQGTTVTVSS
VL: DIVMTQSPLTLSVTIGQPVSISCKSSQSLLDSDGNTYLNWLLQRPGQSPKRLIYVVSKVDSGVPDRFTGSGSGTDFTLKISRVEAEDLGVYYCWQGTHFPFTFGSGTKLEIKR
notes: Human-mouse chimeric antibody, hIgG1 (G1m3) / human kappa (Km3), made in HEK293; also called ch11B11D12-IgG

EC50 [1]: 0.11 nM | EC50 (鼠GAS6 his蛋白(Sino …)): 0.1 nM | EC50 [2]: 0.008 nM
B2: ch18I16C6 (antibody, human IgG1, kappa, V domains shown)
VH: EVKIEESGGGLVKPGGSLKLSCAASGFTFSSYAMSWFRQTPEKRLEWVASISSGGNSYYPDSVKGRFTISRDNARNILYLQMSSLRSEDTAMYYCSRTPDYWGQGTTVTVSS
VL: DVVMTQSPSSMCASLGERVTITCKASQDINTYLSWFQQKPGKSPKTLIYRANRLVDGVPSRFSGSGSGQDYSLTISSLEYEDMGIYYCLQYDEFPFTFGSGTKLEIKR
notes: Human-mouse chimeric antibody, hIgG1 (G1m3) / human kappa (Km3), made in HEK293; also called ch18I16C6-IgG

EC50 [1]: 0.19 nM | EC50 (鼠GAS6 his蛋白(Sino …)): 1.42 nM
B3: ch2D3C6 (antibody, human IgG1, kappa, V domains shown)
VH: DIQLQESGPGLVKPSQSLSLTCSVTGYSITNGYYWNWIRQFPGNKLEWMGYISYDGTNNYNPSLKNRISITRDTSKNQFFLKLNSVTTEDTATYYCARRALWYYAMDYWGQGTSVTVSS
VL: DIVMTQSPASLAVSLGQRATISCKASQSVDYDGESYMNWYQQKPGQPPKLLIYVASNLESGIPARFSGSGSGTDFTLNIHPVEEEDAATYYCQQSDEDPYTFGGGTKLEIKR
notes: Human-mouse chimeric antibody, mouse VH/VL cloned into pTT5_hIgG1.G1m3 / pTT5_hKappa.Km3, made in HEK293; also called ch2D3C6-IgG

EC50 [1]: 0.21 nM | EC50 (鼠GAS6 his蛋白(Sino …)): 0.22 nM | EC50 [2]: 0.025 nM
B4: ch2O18G6 (antibody, human IgG1, kappa, V domains shown)
VH: QVQLQQSGPELVKPGASVKISCKTSGNTFTEYIMHWVKQSHGKSLEWIGGINPKNGGTSYNQKFKGKATLTVDKSSRTAYMELRSLTSEDSAVYYCARVRIPPYVYYAMDYWGQGTTVTVSS
VL: DVVVTQTPLSLPVSLGDQASISCRSSQSIVHSNGNTYLEWYLQKPGQSPKLLIYKVSNRFSGVPDRFSGSGSGTDFTLKISRVEAEDLGVYYCFQGSHVPYTFGGGTKLEIKR
notes: Human-mouse chimeric antibody, hIgG1 (G1m3) / human kappa (Km3), made in HEK293; also called ch2O18G6-IgG

EC50 [1]: 0.16 nM | EC50 (鼠GAS6 his蛋白(Sino …)): 4.94 nM | EC50 [2]: 0.2 nM
B5: ch15G5E5 (antibody, human IgG1, kappa, V domains shown)
VH: EVQLQQSGPELVKPGASVKMSCKASGYTFTDDYMKWVKQSHGKSLEWIGDINPNNGGTIYNQKFKGKAILTVDKSSSTAYMQLNSLTSEDSAVYYCARRGRGSWGQGTTVTVSS
VL: B4 VL with V3L, V4M, H31Y, K55R, V90I, Y101L, G105A, I111L
notes: Human-mouse chimeric antibody, hIgG1 (G1m3) / human kappa (Km3), made in HEK293; also called ch15G5E5-IgG

Reference: patent CN114591431A (MEISWEI SHANGHAI BIOTECHNOLOGY CO LTD, dated 2022)
